From article doi:10.1101/2020.09.29.319483

What was measured:
[1] = target: human glucagon-like peptide-1 receptor (human) (UniProt P43220)
[2] = target: human glucagon-like peptide-1 receptor (human) (UniProt P43220); assay: radioligand binding

Sequence of UniProt P43220 (P43220 24-463): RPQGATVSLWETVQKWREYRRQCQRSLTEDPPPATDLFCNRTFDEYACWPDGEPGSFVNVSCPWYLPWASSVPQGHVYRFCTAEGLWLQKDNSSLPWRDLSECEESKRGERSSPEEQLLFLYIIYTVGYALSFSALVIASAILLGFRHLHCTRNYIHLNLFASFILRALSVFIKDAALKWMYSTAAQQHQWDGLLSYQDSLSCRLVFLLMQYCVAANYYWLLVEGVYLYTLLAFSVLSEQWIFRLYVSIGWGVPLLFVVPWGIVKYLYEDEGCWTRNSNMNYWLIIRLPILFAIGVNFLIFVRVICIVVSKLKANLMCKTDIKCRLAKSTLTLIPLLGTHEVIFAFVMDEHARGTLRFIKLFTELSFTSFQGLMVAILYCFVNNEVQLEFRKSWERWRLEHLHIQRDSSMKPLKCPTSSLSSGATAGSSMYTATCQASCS

Row | Substance | cAMP production, candidate selection (CS) CHO-GLP-1R cell line [1] | Ki [2]
1 | exenatide (from UniProt P26349 48-87) (peptide) | 0.11 nM | 0.092 nM
2 | liraglutide (peptide) |  | 4.4 nM
